In article PMC9700037, “Inflammasome sensor NLRP1 disease variant M1184V promotes autoproteolysis and DPP9 complex formation by stabilizing the FIIND domain” (The Journal of Biological Chemistry, 2022):

T1: NLRP1-FIIND (M1184V) (human, UniProt Q9C000 1064-1376, M1184V)
T1 construct: NLRP1 FIIND domain (ZU5-UPA), human, residues 1064-1376 of isoform 1, natural variant M1184V; Mostly autocleaved between F1212 and S1213, the fragments stay together; GST is still on the protein during the GST pull-down of the co-expression experiments and is cut off by TEV before SEC, SEC-MALS and SPR; also called M1184V variant FIIND; source: also co-expressed with His6-DPP9 with or without …
T1 sequence (looked up): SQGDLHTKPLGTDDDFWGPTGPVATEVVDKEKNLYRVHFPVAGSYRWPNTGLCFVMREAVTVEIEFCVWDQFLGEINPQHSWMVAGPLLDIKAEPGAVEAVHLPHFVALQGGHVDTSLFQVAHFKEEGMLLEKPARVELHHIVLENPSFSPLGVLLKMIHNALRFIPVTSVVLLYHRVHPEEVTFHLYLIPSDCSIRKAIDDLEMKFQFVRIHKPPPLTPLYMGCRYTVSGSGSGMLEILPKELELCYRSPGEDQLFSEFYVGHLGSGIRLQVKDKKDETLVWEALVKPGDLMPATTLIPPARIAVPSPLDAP

T2: biotin-MBP-NLRP1 M1184V (Avi-MBP-tev-NLRP1 M1184V) (human, UniProt Q9C000 1-1473, M1184V, biotin (on the Avi tag, BirA co-expressed))
T2 construct: NLRP1, human, isoform 1, residues 1-1473, natural variant M1184V; also called M1184VSf9; source: Sf9 insect cells, co-expressed with BirA, purified (multimer or void SEC fraction); not shown: Avi, N-terminal, kept; MBP, N-terminal, kept
T2 sequence (looked up): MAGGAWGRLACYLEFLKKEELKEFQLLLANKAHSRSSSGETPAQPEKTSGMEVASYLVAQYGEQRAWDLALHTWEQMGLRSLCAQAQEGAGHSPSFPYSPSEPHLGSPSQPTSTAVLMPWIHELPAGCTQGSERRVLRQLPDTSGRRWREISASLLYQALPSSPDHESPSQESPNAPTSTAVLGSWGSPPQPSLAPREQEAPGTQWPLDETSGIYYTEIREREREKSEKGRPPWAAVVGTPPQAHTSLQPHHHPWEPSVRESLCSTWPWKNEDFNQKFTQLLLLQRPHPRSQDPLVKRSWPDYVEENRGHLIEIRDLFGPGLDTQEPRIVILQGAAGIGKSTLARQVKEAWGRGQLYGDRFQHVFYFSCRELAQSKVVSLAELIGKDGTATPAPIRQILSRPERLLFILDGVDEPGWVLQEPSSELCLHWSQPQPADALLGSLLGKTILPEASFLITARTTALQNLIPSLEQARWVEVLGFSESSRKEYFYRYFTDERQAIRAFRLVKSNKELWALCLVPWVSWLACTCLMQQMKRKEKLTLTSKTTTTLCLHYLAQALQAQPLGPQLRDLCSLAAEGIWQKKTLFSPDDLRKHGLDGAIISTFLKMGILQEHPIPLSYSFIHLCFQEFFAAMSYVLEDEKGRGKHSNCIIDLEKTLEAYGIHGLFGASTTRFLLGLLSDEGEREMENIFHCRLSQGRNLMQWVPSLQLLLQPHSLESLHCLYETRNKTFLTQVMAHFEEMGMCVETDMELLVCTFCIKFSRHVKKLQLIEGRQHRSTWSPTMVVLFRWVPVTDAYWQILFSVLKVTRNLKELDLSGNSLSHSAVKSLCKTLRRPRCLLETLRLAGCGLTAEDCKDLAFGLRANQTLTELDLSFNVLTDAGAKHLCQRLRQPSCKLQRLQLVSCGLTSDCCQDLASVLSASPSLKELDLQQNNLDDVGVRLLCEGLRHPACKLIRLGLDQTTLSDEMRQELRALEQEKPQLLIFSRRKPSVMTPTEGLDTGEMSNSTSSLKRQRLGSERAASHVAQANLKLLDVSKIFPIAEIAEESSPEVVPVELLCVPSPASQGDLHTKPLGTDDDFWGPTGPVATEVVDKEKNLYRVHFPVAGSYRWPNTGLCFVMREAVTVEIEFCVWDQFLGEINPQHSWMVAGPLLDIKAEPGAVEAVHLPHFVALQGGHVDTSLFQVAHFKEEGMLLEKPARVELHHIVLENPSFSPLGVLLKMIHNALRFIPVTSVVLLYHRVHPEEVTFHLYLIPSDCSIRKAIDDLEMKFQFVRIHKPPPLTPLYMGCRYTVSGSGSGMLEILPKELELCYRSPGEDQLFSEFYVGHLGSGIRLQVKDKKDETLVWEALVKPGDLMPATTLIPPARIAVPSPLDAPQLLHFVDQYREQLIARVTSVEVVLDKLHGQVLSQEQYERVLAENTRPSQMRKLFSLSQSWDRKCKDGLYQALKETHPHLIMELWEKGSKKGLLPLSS

T3: Biotin-FLAG-NLRP1 M1184V (human, UniProt Q9C000 1-1473, M1184V, biotin)
T3 construct: NLRP1 full length, natural variant M1184V; the construct for purification from HEK293T and its biotinylation are not described in the methods; also called M1184VHEK; source: HEK293T cells, purified
T3 sequence (looked up): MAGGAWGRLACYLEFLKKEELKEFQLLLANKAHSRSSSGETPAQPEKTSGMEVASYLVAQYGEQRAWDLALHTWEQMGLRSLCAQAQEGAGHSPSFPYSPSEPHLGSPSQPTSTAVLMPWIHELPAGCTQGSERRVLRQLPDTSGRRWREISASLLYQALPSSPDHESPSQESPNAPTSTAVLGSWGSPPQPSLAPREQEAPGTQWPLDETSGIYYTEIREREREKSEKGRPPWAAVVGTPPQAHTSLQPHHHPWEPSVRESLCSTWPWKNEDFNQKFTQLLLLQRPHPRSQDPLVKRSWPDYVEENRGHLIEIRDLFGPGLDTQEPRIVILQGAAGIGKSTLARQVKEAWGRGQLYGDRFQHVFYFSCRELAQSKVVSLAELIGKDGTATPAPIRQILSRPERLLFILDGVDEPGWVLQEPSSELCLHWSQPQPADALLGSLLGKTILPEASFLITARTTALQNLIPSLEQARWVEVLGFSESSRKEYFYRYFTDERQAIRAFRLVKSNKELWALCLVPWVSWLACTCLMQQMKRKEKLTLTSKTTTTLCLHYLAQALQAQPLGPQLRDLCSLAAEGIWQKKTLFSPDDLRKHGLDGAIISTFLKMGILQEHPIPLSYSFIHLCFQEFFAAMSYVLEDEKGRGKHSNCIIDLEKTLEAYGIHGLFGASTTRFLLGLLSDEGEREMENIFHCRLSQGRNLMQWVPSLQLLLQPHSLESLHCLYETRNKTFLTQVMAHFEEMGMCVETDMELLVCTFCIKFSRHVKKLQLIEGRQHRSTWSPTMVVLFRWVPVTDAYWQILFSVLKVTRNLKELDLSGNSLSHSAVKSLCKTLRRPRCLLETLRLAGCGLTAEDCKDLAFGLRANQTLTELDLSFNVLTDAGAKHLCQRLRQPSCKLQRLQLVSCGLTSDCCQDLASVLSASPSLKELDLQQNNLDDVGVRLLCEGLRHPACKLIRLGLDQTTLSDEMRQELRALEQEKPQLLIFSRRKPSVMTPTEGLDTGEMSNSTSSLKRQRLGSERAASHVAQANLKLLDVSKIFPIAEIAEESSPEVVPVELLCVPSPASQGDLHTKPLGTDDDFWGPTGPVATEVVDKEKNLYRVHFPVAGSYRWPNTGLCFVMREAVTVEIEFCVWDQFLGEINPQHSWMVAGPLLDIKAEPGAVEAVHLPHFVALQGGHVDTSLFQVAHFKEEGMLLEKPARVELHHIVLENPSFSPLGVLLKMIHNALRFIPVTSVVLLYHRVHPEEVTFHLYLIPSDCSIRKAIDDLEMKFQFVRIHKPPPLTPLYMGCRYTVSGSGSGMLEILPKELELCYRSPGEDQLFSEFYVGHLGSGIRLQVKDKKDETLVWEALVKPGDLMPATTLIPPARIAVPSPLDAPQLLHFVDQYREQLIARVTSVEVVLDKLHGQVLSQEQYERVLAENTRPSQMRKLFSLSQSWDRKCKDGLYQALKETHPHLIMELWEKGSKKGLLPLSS


Key:
NLRP1-FIIND (M1184V) = target: T1, NLRP1-FIIND (M1184V); test: SEC-MALS; co-eluting SEC fractions of FIIND, DPP9 and free UPA co-expressed in Sf9 and co-purified; 0.5-1.0 mg/ml, Superose 6 increase (10/300) GL, buffer A without glycerol; settings: partners not purified
[1] = target: T2, biotin-MBP-NLRP1 M1184V …; test: SPR; Biotin-FLAG-NLRP1 (from HEK293T) or biotin-MBP-NLRP1 (from Sf9, multimer fraction) or biotin-MBP immobilised on a streptavidin chip; DPP9 injected at 78-2500 nM, single-cycle kinetics, 10 mM Hepes pH 7.5, 150 mM NaCl, 0.5 mM TCEP, 0.05% Tween-20; settings: both partners purified
Biotin-FLAG-NLRP1 M1184V = target: T3, Biotin-FLAG-NLRP1 M1184V; test: as above; settings: both partners purified
[2] = target: the molecule itself; test: SEC; purified full-length MBP-NLRP1, Superose 6 increase (10/300) GL, 0.5 ml/min, buffer A (25 mM Hepes pH 7.5, 150 mM NaCl, 0.5 mM TCEP, 10% glycerol); fractions checked by SDS-PAGE

| Binder | stoichiometry N (NLRP1-FIIND (M1184V)) | Kd [1] | Kd (Biotin-FLAG-NLRP1 M1184V) | binding result [2] |
| --- | --- | --- | --- | --- |
| His6-tev-DPP9 (enzyme, UniProt Q86TI2 1-863, looked up, dipeptidyl peptidase 9 (DPP9); Dimer by SEC-MALS (192 kDa); also called His6-DPP9; source: Sf9 insect cells, purified; also co-expressed with GST-tev-FIIND constructs in Sf9 and co-purified) MATTGTPTADRGDAAATDDPAARFQVQKHSWDGLRSIIHGSRKYSGLIVNKAPHDFQFVQKTDESGPHSHRLYYLGMPYGSRENSLLYSEIPKKVRKEALLLLSWKQMLDHFQATPHHGVYSREEELLRERKRLGVFGITSYDFHSESGLFLFQASNSLFHCRDGGKNGFMVSPMKPLEIKTQCSGPRMDPKICPADPAFFSFINNSDLWVANIETGEERRLTFCHQGLSNVLDDPKSAGVATFVIQEEFDRFTGYWWCPTASWEGSEGLKTLRILYEEVDESEVEVIHVPSPALEERKTDSYRYPRTGSKNPKIALKLAEFQTDSQGKIVSTQEKELVQPFSSLFPKVEYIARAGWTRDGKYAWAMFLDRPQQWLQLVLLPPALFIPSTENEEQRLASARAVPRNVQPYVVYEEVTNVWINVHDIFYPFPQSEGEDELCFLRANECKTGFCHLYKVTAVLKSQGYDWSEPFSPGEDEFKCPIKEEIALTSGEWEVLARHGSKIWVNEETKLVYFQGTKDTPLEHHLYVVSYEAAGEIVRLTTPGFSHSCSMSQNFDMFVSHYSSVSTPPCVHVYKLSGPDDDPLHKQPRFWASMMEAASCPPDYVPPEIFHFHTRSDVRLYGMIYKPHALQPGKKHPTVLFVYGGPQVQLVNNSFKGIKYLRLNTLASLGYAVVVIDGRGSCQRGLRFEGALKNQMGQVEIEDQVEGLQFVAEKYGFIDLSRVAIHGWSYGGFLSLMGLIHKPQVFKVAIAGAPVTVWMAYDTGYTERYMDVPENNQHGYEAGSVALHVEKLPNEPNRLLILHGFLDENVHFFHTNFLVSQLIRAGKPYQLQIYPNERHSIRCPESGEHYEVTLLHFLQEYL | 2 DPP9 chains per FIIND | 149 nM | 144 nM |  |
| MBP-NLRP1 M1184V (full length) (natural protein, human, UniProt Q9C000 1-1473, looked up, NLRP1, human, isoform 1, residues 1-1473, codon-optimized, natural variant M1184V; More autocleaved between F1212 and S1213 than the wt; source: Sf9 insect cells, purified (MBPTrap, SEC); not shown: MBP, N-terminal, kept) MAGGAWGRLACYLEFLKKEELKEFQLLLANKAHSRSSSGETPAQPEKTSGMEVASYLVAQYGEQRAWDLALHTWEQMGLRSLCAQAQEGAGHSPSFPYSPSEPHLGSPSQPTSTAVLMPWIHELPAGCTQGSERRVLRQLPDTSGRRWREISASLLYQALPSSPDHESPSQESPNAPTSTAVLGSWGSPPQPSLAPREQEAPGTQWPLDETSGIYYTEIREREREKSEKGRPPWAAVVGTPPQAHTSLQPHHHPWEPSVRESLCSTWPWKNEDFNQKFTQLLLLQRPHPRSQDPLVKRSWPDYVEENRGHLIEIRDLFGPGLDTQEPRIVILQGAAGIGKSTLARQVKEAWGRGQLYGDRFQHVFYFSCRELAQSKVVSLAELIGKDGTATPAPIRQILSRPERLLFILDGVDEPGWVLQEPSSELCLHWSQPQPADALLGSLLGKTILPEASFLITARTTALQNLIPSLEQARWVEVLGFSESSRKEYFYRYFTDERQAIRAFRLVKSNKELWALCLVPWVSWLACTCLMQQMKRKEKLTLTSKTTTTLCLHYLAQALQAQPLGPQLRDLCSLAAEGIWQKKTLFSPDDLRKHGLDGAIISTFLKMGILQEHPIPLSYSFIHLCFQEFFAAMSYVLEDEKGRGKHSNCIIDLEKTLEAYGIHGLFGASTTRFLLGLLSDEGEREMENIFHCRLSQGRNLMQWVPSLQLLLQPHSLESLHCLYETRNKTFLTQVMAHFEEMGMCVETDMELLVCTFCIKFSRHVKKLQLIEGRQHRSTWSPTMVVLFRWVPVTDAYWQILFSVLKVTRNLKELDLSGNSLSHSAVKSLCKTLRRPRCLLETLRLAGCGLTAEDCKDLAFGLRANQTLTELDLSFNVLTDAGAKHLCQRLRQPSCKLQRLQLVSCGLTSDCCQDLASVLSASPSLKELDLQQNNLDDVGVRLLCEGLRHPACKLIRLGLDQTTLSDEMRQELRALEQEKPQLLIFSRRKPSVMTPTEGLDTGEMSNSTSSLKRQRLGSERAASHVAQANLKLLDVSKIFPIAEIAEESSPEVVPVELLCVPSPASQGDLHTKPLGTDDDFWGPTGPVATEVVDKEKNLYRVHFPVAGSYRWPNTGLCFVMREAVTVEIEFCVWDQFLGEINPQHSWMVAGPLLDIKAEPGAVEAVHLPHFVALQGGHVDTSLFQVAHFKEEGMLLEKPARVELHHIVLENPSFSPLGVLLKMIHNALRFIPVTSVVLLYHRVHPEEVTFHLYLIPSDCSIRKAIDDLEMKFQFVRIHKPPPLTPLYMGCRYTVSGSGSGMLEILPKELELCYRSPGEDQLFSEFYVGHLGSGIRLQVKDKKDETLVWEALVKPGDLMPATTLIPPARIAVPSPLDAPQLLHFVDQYREQLIARVTSVEVVLDKLHGQVLSQEQYERVLAENTRPSQMRKLFSLSQSWDRKCKDGLYQALKETHPHLIMELWEKGSKKGLLPLSS |  |  |  | binds |
